Source: publication doi:10.1101/2024.06.27.600973

Biological target: NY-ESO-1 peptide on HLA-A*02:01 (human)
Test: data from [38–40]

- Kd: 10 µM
Substance: 1G4
